Laboratory results as given in patent US20190077860A1 (EISAI R AND D MANAGEMENT, published 2019).

How the values were obtained:
Assay in all cases: ELISA
SEAP-His = SEAP-His (UniProt P05187 23-511)
[1] = target: T1, human EphA1 extracellular region-SEAP-His protein (human, UniProt P21709 26-547)
T1 construct: extracellular domain; also called hEphA1-SEAP-His
T1 sequence (looked up): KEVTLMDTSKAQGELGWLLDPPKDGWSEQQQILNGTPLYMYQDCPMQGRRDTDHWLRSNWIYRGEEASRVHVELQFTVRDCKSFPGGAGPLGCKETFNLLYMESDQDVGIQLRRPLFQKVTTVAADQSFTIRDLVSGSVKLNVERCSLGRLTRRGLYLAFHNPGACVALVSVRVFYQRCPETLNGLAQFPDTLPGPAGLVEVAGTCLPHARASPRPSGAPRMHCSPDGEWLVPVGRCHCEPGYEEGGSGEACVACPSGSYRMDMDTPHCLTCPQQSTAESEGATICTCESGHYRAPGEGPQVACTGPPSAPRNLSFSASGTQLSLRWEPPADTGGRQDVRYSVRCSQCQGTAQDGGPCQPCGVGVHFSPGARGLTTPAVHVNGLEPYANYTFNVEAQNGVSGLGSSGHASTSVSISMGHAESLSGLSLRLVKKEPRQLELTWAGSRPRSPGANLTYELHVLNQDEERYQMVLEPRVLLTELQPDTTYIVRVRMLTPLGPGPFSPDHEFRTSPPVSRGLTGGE

[2] = target: T2, human EphA5 extracellular region-SEAP-His protein (human, UniProt P54756 25-573)
T2 construct: extracellular domain; also called hEphA5-SEAP-His
T2 sequence (P54756 25-573): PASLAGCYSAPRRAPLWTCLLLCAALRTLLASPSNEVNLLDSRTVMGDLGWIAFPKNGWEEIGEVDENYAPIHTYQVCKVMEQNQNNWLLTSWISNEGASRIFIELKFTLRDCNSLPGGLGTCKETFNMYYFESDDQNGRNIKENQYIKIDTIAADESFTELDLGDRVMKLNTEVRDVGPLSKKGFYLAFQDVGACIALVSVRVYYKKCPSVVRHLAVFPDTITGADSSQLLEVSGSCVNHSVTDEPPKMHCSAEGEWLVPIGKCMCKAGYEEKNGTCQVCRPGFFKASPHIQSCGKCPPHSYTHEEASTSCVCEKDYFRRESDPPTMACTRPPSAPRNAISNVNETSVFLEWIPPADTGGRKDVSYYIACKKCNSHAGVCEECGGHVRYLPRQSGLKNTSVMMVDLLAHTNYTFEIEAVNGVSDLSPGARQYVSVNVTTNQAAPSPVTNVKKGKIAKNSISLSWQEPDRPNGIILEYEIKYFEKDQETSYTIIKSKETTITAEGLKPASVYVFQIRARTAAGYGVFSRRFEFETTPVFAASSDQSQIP

[3] = target: T3, human EphA7 extracellular region-SEAP-His protein (human, UniProt Q15375 28-555)
T3 construct: extracellular domain; also called hEphA7-SEAP-His
T3 sequence (looked up): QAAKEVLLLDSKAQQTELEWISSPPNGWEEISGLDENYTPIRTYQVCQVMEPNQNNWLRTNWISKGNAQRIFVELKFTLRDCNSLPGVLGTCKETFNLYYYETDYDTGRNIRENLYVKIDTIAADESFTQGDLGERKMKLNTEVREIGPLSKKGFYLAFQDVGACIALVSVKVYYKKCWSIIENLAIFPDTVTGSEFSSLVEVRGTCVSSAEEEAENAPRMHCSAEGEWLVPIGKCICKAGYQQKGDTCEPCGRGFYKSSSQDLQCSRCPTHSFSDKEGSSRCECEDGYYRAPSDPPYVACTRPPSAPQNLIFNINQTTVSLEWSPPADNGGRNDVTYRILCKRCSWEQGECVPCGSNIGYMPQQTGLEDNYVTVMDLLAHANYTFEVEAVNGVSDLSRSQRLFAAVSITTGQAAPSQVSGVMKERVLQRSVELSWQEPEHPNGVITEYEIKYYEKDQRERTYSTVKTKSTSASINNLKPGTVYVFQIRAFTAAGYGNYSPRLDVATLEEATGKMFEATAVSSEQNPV

[4] = target: T4, human EphA10 extracellular region-SEAP-His protein (human, UniProt Q5JZY3 34-565)
T4 construct: extracellular domain; also called hEphA10-SEAP-His
T4 sequence (looked up): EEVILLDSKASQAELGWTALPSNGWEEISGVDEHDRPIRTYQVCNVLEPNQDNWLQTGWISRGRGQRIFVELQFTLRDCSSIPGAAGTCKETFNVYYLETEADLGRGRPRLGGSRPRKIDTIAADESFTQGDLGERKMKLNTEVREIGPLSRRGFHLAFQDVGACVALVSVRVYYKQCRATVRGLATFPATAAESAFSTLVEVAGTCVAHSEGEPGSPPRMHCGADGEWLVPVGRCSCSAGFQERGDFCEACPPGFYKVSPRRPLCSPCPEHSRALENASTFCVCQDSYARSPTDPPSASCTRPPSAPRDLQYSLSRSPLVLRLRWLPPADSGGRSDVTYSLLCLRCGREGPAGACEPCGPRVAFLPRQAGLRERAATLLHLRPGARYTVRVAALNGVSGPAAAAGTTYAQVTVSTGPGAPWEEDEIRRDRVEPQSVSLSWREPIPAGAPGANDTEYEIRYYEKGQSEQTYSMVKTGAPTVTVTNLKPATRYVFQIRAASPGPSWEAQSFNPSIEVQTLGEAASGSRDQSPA

[5] = target: T5, human EphB6 extracellular region-SEAP-His protein (human, UniProt O15197 32-594)
T5 construct: extracellular domain; also called hEphB6-SEAP-His
T5 sequence (looked up): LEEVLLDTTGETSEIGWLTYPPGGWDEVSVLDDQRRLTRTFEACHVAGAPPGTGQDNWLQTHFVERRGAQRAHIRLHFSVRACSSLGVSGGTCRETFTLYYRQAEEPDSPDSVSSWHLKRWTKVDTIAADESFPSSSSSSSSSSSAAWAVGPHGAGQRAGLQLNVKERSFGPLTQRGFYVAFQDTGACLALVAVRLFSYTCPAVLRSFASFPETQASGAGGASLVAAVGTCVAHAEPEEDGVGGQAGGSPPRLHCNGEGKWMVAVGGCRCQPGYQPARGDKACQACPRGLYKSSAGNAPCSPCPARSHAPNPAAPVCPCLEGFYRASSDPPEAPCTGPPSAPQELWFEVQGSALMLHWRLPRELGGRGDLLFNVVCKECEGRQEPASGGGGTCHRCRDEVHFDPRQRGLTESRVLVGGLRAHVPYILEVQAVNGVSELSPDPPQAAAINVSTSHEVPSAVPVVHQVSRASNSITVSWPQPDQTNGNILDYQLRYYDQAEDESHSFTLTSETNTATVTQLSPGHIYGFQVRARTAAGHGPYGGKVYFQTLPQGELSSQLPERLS

SEAP-His, sequence (P05187 23-511): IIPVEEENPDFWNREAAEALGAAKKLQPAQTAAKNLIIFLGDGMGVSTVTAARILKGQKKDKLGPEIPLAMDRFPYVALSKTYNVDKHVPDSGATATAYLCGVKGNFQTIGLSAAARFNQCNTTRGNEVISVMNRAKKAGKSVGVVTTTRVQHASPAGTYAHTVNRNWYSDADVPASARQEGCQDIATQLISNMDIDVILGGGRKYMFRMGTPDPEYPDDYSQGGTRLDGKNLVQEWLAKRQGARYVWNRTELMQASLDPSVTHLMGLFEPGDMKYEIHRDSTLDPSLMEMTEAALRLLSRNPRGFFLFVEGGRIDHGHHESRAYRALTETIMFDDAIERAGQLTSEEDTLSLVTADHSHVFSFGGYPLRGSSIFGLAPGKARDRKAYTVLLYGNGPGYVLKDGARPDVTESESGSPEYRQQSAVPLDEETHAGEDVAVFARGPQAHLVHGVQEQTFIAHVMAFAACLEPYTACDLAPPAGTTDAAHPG

Binder	A450 as % of hEphA4-SEAP-His (SEAP-His) [%]	A450 as % of hEphA4-SEAP-His [1] [%]	A450 as % of hEphA4-SEAP-His [2] [%]	A450 as % of hEphA4-SEAP-His [3] [%]	A450 as % of hEphA4-SEAP-His [4] [%]	A450 as % of hEphA4-SEAP-His [5] [%]
humanized antibody No. 153 (antibody, human IgG2, human Ig kappa; also called L1-5/HA2) heavy: QVQLVQSGSELKKPGASVKVSCKASGYTFTDYSMHWVRQAPGQGLKWMGWINTETGEPTYAQGFTGRFVFSLDTSVSTAYLQISSLKAEDTAVYYCARIPLYYYGSRYWYFDVWGQGTTVTVSSASTKGPSVFPLAPSSRSTSESTAALGCLVKDYFPEPVTVSWNSGALTSGVHTFPAVLQSSGLYSLSSVVTVPSSNFGTQTYTCNVDHKPSNTKVDKTVERKSCVECPPCPAPPAAAPSVFLFPPKPKDTLMISRTPEVTCVVVDVSHEDPEVQFNWYVDGVEVHNAKTKPREEQFNSTFRVVSVLTVVHQDWLNGKEYKCKVSNKGLPAPIEKTISKTKGQPREPQVYTLPPSREEMTKNQVSLTCLVKGFYPSDIAVEWESNGQPENNYKTTPPMLDSDGSFFLYSKLTVDKSRWQQGNVFSCSVMHEALHNHYTQKSLSLSPG light: DIQMTQSPSSLSASVGDRVTITCRASENIYRNLAWYQQKPGKAPKLLLYAATNLADGVPSRFSGSGSGTDYTLTISSLQSEDFATYYCQHFWGTPWTFGQGTKVEIKRTVAAPSVFIFPPSDEQLKSGTASVVCLLNNFYPREAKVQWKVDNALQSGNSQESVTEQDSKDSTYSLSSTLTLSKADYEKHKVYACEVTHQGLSSPVTKSFNRGEC	5.9	6.3	6.1	6.2	6	6.2
humanized antibody No. 154 (antibody, human IgG2, human Ig kappa; also called L1-5/HK1) heavy: QVQLVQSGSELKKPGASVKVSCKASGYTFTDYSMHWVRQAPGQGLEWMGWINTETGEPTYADDFKGRFVFSLDTSVSTAYLQISSLKAEDTAVYYCARIPLYYYGSRYWYFDVWGQGTTVTVSSASTKGPSVFPLAPSSRSTSESTAALGCLVKDYFPEPVTVSWNSGALTSGVHTFPAVLQSSGLYSLSSVVTVPSSNFGTQTYTCNVDHKPSNTKVDKTVERKSCVECPPCPAPPAAAPSVFLFPPKPKDTLMISRTPEVTCVVVDVSHEDPEVQFNWYVDGVEVHNAKTKPREEQFNSTFRVVSVLTVVHQDWLNGKEYKCKVSNKGLPAPIEKTISKTKGQPREPQVYTLPPSREEMTKNQVSLTCLVKGFYPSDIAVEWESNGQPENNYKTTPPMLDSDGSFFLYSKLTVDKSRWQQGNVFSCSVMHEALHNHYTQKSLSLSPG light: DIQMTQSPSSLSASVGDRVTITCRASENIYRNLAWYQQKPGKAPKLLLYAATNLADGVPSRFSGSGSGTDYTLTISSLQSEDFATYYCQHFWGTPWTFGQGTKVEIKRTVAAPSVFIFPPSDEQLKSGTASVVCLLNNFYPREAKVQWKVDNALQSGNSQESVTEQDSKDSTYSLSSTLTLSKADYEKHKVYACEVTHQGLSSPVTKSFNRGEC	6.3	6.4	6.3	6.3	5.9	6.4
humanized antibody No. 155 (antibody, human IgG2, human Ig kappa; also called L1-5/HK4) heavy: QIQLVQSGSELKKPGASVKVSCKASGYTFTDYSMHWVRQAPGQGLKWMGWINTETGEPTYADDFKGRFVFSLDTSVSTAYLQISSLKAEDTAVYYCARIPLYYYGSRYWYFDVWGQGTTVTVSSASTKGPSVFPLAPSSRSTSESTAALGCLVKDYFPEPVTVSWNSGALTSGVHTFPAVLQSSGLYSLSSVVTVPSSNFGTQTYTCNVDHKPSNTKVDKTVERKSCVECPPCPAPPAAAPSVFLFPPKPKDTLMISRTPEVTCVVVDVSHEDPEVQFNWYVDGVEVHNAKTKPREEQFNSTFRVVSVLTVVHQDWLNGKEYKCKVSNKGLPAPIEKTISKTKGQPREPQVYTLPPSREEMTKNQVSLTCLVKGFYPSDIAVEWESNGQPENNYKTTPPMLDSDGSFFLYSKLTVDKSRWQQGNVFSCSVMHEALHNHYTQKSLSLSPG light: DIQMTQSPSSLSASVGDRVTITCRASENIYRNLAWYQQKPGKAPKLLLYAATNLADGVPSRFSGSGSGTDYTLTISSLQSEDFATYYCQHFWGTPWTFGQGTKVEIKRTVAAPSVFIFPPSDEQLKSGTASVVCLLNNFYPREAKVQWKVDNALQSGNSQESVTEQDSKDSTYSLSSTLTLSKADYEKHKVYACEVTHQGLSSPVTKSFNRGEC	5.8	5.5	5.6	5.6	5.4	5.6
humanized antibody No. 156 (antibody, human IgG2, human Ig kappa; also called L1-6/HA4) heavy: QIQLVQSGSELKKPGASVKVSCKASGYTFTDYSMHWVRQAPGQGLKWMGWINTETGEPTYAQGFTGRFVFSLDTSVSTAYLQISSLKAEDTAVYYCARIPLYYYGSRYWYFDVWGQGTTVTVSSASTKGPSVFPLAPSSRSTSESTAALGCLVKDYFPEPVTVSWNSGALTSGVHTFPAVLQSSGLYSLSSVVTVPSSNFGTQTYTCNVDHKPSNTKVDKTVERKSCVECPPCPAPPAAAPSVFLFPPKPKDTLMISRTPEVTCVVVDVSHEDPEVQFNWYVDGVEVHNAKTKPREEQFNSTFRVVSVLTVVHQDWLNGKEYKCKVSNKGLPAPIEKTISKTKGQPREPQVYTLPPSREEMTKNQVSLTCLVKGFYPSDIAVEWESNGQPENNYKTTPPMLDSDGSFFLYSKLTVDKSRWQQGNVFSCSVMHEALHNHYTQKSLSLSPG light: DIQMTQSPSSLSASVGDRVTITCRASENIYRNLAWYQQKPGKAPQLLLYAATNLADGVPSRFSGSGSGTDYTLTISSLQPEDFATYYCQHFWGTPWTFGQGTKVEIKRTVAAPSVFIFPPSDEQLKSGTASVVCLLNNFYPREAKVQWKVDNALQSGNSQESVTEQDSKDSTYSLSSTLTLSKADYEKHKVYACEVTHQGLSSPVTKSFNRGEC	5.4	5.7	5.7	5.6	5.3	5.7
